According to the PETadex activity labels (doi:10.1101/2025.08.30.673199):
Changes are numbered by the printed parent chain.

B1: unnamed (protein)
chain: MKAPLFKLAAFTLGVSLSSVALATNPGGGGAGSNPDTGTGFPGVSSFSADGSFATTSGSAGLSCTVFRPSTLGANGLKHPIIVWGNGTTASPSTYSGILEHWASHGFVVIAANTSNAGTGQDMLNCVDYLTTQNNRSTGTYANKLDLNRIGAAGHSQGGGGTIMAGQDYRIKVTAPFQPYTIGLGHNSSSQSNQNGPMFLMTGSADTIASPTLNALPVYNRANVPVFWGELSGASHFEPMGSAGDFRGPSTAWFRYHLMDDASAEDTFYGSNCDLCTDNDWDVRRKGIN
B2: unnamed (protein)
chain: B1 chain with G185A, M240V
B3: unnamed (protein)
chain: B1 chain with F237I
B4: unnamed (protein)
chain: B1 chain with S156A, M240V
B5: unnamed (protein)
chain: B1 chain with N187A, M240V
B6: unnamed (protein)
chain: B1 chain with Y180W, N214S, V218I, M240V
B7: unnamed (protein)
chain: B1 chain with D206A, M240V
B8: unnamed (protein)
chain: B1 chain with M240V, C273A
B9: unnamed (protein)
chain: B1 chain with Q157M, M240V
B10: unnamed (protein)
chain: B1 chain with L184A, M240V
B11: unnamed (protein)
chain: B1 chain with T88Y, M240V
B12: unnamed (protein)
chain: B1 chain with H186A, M240V
B13: unnamed (protein)
chain: B1 chain with M240V
B14: unnamed (protein)
chain: B1 chain with C126A, M240V
B15: unnamed (protein)
chain: B1 chain with Y180F, M240V
B16: unnamed (protein)
chain: B1 chain with Y180W, N214H, V218F, M240V

Substrate: PET
Test: Proxy for plastic degradation [Released monomer concentration (HPLC/LC-MS) (TPA+MHET+BHET)]
Settings: pH 9

Row | Protein | Proxy for plastic degradation [µM]
1 | B1 | 870
2 | B2 | 540
3 | B3 | 600
4 | B4 | 10
5 | B5 | 920
6 | B6 | 105
7 | B7 | 10
8 | B8 | 10
9 | B9 | 315
10 | B10 | 820
11 | B11 | 345
12 | B12 | 120
13 | B13 | 1020
14 | B14 | 250
15 | B15 | 375
16 | B16 | 85
